Measurements taken from publication PMC9060916.

T1: C-reactive protein (CRP) (UniProt P02741 19-224)
T1 sequence: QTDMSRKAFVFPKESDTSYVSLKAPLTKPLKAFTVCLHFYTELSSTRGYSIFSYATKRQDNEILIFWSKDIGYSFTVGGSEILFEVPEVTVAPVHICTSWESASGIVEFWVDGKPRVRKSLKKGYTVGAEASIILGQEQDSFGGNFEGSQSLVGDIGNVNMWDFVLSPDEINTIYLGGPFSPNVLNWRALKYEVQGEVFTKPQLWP

T2: alpha fetoprotein (AFP) (human, UniProt P02771 19-609)
T2 sequence: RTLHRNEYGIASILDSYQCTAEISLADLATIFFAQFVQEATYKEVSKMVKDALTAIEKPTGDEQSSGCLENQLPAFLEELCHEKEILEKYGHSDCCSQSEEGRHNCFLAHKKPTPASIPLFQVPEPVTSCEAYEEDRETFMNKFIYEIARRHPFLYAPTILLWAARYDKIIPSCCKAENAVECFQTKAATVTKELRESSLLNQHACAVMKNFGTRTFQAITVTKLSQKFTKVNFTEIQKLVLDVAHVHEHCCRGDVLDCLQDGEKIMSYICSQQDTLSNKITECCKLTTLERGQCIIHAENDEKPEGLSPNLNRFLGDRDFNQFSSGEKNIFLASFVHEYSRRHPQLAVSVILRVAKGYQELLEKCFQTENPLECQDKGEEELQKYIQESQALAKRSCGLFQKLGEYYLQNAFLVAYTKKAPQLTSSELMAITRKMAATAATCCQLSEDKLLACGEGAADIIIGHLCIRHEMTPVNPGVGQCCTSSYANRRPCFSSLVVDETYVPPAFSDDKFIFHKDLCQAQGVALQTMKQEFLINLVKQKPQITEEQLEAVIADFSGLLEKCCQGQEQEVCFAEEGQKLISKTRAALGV


Assays:
C-reactive protein (CRP) = target: T1, C-reactive protein (CRP); assay: electrochemical sandwich aptasensor
alpha fetoprotein (AFP) = target: T2, alpha fetoprotein (AFP); assay: electrochemical sandwich aptasensor

| Binder | binding result (C-reactive protein (CRP)) | binding result (alpha fetoprotein (AFP)) |
| --- | --- | --- |
| GACATACCAGCTTATTCAATT (ssDNA, 5' HS-(CH2)6) [HS-GAC-P] | no binding | no binding |
| ATACCAGCTTATTCAATTATG (ssDNA, 5' HS-(CH2)6) [HS-P-ATG] | no binding | no binding |
